Laboratory results as given in patent CN111748032A (JIANGSU PROVINCIAL CENTER FOR DISEASE CONTROL AND …, dated 2020).
Residue numbers refer to the chain shown, from its start.

B1: JS14 (antibody, V domains shown)
VH: EVQLLESGGGVVQPGRSLRLSCAASGFTFSSYGMHWVRQAPGKGLEWVAVIWYDGSNKYYADSVKGRFTISRDNSKNTLYLQMNSLRAEDTAVYYCARDGSGSYYWGSLDYWGQGTLVTVSS
VL: not shown
B2: JS01 (antibody, V domains shown)
VH: QVQLVESGAEVKKPGSSVKVSCKASGGTFSSYAISWVRQAPGQGLEWMGGIIPIFGTANYAQKFQGRVTITADESTSTAYMELSSLRSEDTAVYYCARGGWRSSGYHDYSYYGMDVWGQGTTVTVSS
VL: not shown
B3: JS13 (antibody, V domains shown)
VH: QVQLVQSGAEVKKPGSSVKVSCKASGGTFSSYAISWVRQAPGQGLEWMGGIIPIFGTANYAQKFQGRVTITADESTSTAYMELSSLRSEDTAVYYCARGGWVICSSTSCYTKYSYYGMDVWGQGTTVTVSS
VL: QSVLTQPPSVSAAPGQKVTISCSGSSSNIGNNYVSWYQQLPGTAPKLLIYDNNKRPSGIPDRFSGSKSGTSATLGITGLQTGDEADYYCGTWDSSLIARLFGGGTKLTVL
B4: JS05 (antibody, V domains shown)
VH: EVQLLESGGGVVQPGRSLRLSCAASGFIFSSYGMHWVRQAPGKGLEWVAVIWYDGSNKYYADSVKGRFTISRDNSKNTLYLQMNSLRAEDTAVYYCARDLRGPTGWTFDYWGQGTLVTVSS
VL: ENVLTQSPATLSLSPGERATLSCRASQSVSNYLAWYQQRPGQAPRLLIYDSSNRATGIPARFSGSGSGTDFTLTISSLEPEDFAVYYCQHRSNWKITFGQGTRLEIK
B5: JS12 (antibody, V domains shown)
VH: B1 VH
VL: B4 VL with N31S, R39K, D50G, S51A, H90Q, K95P, I96W, R103K, L104V

biological target: 重组SARS-CoV2核蛋白(NP) (SARS-CoV-2, UniProt P0DTC9 1-419); test: double-antibody sandwich lateral flow strip, paired with JS08, recombinant NP

Row | Binder | 检测限 (detection limit) [ng/mL]
1 | B1 | < 2
2 | B2 | < 2
3 | B3 | < 2
4 | B4 | < 2
5 | B5 | < 2
